Data taken from patent publication US20250011363A1, “OPTIMIZED SHORTENED PEPTIDE THAT BINDS TO ACETYLCHOLINE RECEPTOR, AND USE THEREOF” (SKINMED CO., LTD., priority 2021, published 2025).

The substances below were run against acetylcholine receptor (Homo sapiens, UniProt P02708) (assay: SPR binding affinity (RU) of optimized 5mer/6mer/7mer peptides, Examples 6-7). Settings: 6mer-1 Top sequence; SPR; peptides tested at 10 μM.
Procedure, shortened: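 SPR, peptides at 10 μM; read-out = response units (RU). Sequences drawn from top- or bottom-frequency amino acid combinations, 5mer/6mer-1/6mer-2 libraries.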

Sequence of acetylcholine receptor (P02708 21-457): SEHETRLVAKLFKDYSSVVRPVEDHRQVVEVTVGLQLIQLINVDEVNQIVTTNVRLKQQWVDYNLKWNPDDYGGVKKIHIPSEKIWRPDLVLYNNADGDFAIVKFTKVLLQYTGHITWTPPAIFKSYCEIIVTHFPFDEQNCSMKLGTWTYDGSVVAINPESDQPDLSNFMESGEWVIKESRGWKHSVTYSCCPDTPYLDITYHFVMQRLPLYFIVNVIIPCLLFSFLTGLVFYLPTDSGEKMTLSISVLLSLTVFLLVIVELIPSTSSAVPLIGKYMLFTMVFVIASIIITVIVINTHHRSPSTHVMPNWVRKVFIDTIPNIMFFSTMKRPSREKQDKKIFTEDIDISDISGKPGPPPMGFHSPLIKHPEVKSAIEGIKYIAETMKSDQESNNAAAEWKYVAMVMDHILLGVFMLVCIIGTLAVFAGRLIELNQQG

Work on 6mer-1-1225 (RKLICK) yielded a Binding affinity of 142 Ru.

Same assay, conditions: 6mer-2 Top sequence; SPR; peptides tested at 10 μM

First: 6mer-2-1 (RRRLKK)
Second: 6mer-2-2 (RWYLKR)
The Binding affinity of the first is lower: 131 Ru for the first, 139 Ru for the second.

Going from 6mer-2-3 (KVYSRK) to 6mer-2-4 (RSYYRR), the Binding affinity falls from 148 Ru to 125 Ru.

Compared with 6mer-2-5 (RWVSKR), 6mer-2-6 (KSICRR) is lower in Binding affinity: 124 Ru for the first, 122 Ru for the second.

Going from 6mer-2-7 (KSRCRK) to 6mer-2-8 (KSLQKK), the Binding affinity rises from 126 Ru to 135 Ru.

First: 6mer-2-9 (KLICRK)
Second: 6mer-2-10 (KVFSKK)
The Binding affinity of the first is higher: 139 Ru for the first, 124 Ru for the second.

First: 6mer-2-11 (RQYQRR)
Second: 6mer-2-12 (RQFQRK)
The Binding affinity of the first is lower: 121 Ru for the first, 147 Ru for the second.

Going from 6mer-2-13 (RQYTRK) to 6mer-2-14 (RGRQKK), the Binding affinity rises from 123 Ru to 153 Ru.

Going from 6mer-2-15 (KQVRKR) to 6mer-2-16 (KGVCRR), the Binding affinity falls from 133 Ru to 121 Ru.

Going from 6mer-2-17 (RWVTRR) to 6mer-2-18 (RSILRR), the Binding affinity falls from 142 Ru to 124 Ru.

Going from 6mer-2-19 (RSFSKK) to 6mer-2-20 (RVQTRR), the Binding affinity rises from 135 Ru to 137 Ru.

Going from 6mer-2-21 (RLFTRK) to 6mer-2-22 (RQIRKK), the Binding affinity falls from 141 Ru to 124 Ru.

Going from 6mer-2-23 (RWVRKK) to 6mer-2-24 (KGIQRK), the Binding affinity falls from 148 Ru to 141 Ru.

Compared with 6mer-2-25 (KQVQKR), 6mer-2-26 (RWRRKK) is lower in Binding affinity: 148 Ru for the first, 121 Ru for the second.

Compared with 6mer-2-27 (KVIRRK), 6mer-2-28 (KVLSRK) is higher in Binding affinity: 128 Ru for the first, 142 Ru for the second.

Compared with 6mer-2-29 (RSQRKR), 6mer-2-30 (RQFYKK) is lower in Binding affinity: 142 Ru for the first, 139 Ru for the second.

Compared with 6mer-2-31 (KSYQRK), 6mer-2-32 (RRLCRK) is higher in Binding affinity: 121 Ru for the first, 139 Ru for the second.

Going from 6mer-2-33 (RQFRKK) to 6mer-2-34 (KVFRRK), the Binding affinity falls from 142 Ru to 124 Ru.

Compared with 6mer-2-35 (RWISRK), 6mer-2-36 (RRLQKK) is lower in Binding affinity: 148 Ru for the first, 131 Ru for the second.

Compared with 6mer-2-37 (KLLYRK), 6mer-2-38 (RSYYKR) is lower in Binding affinity: 148 Ru for the first, 136 Ru for the second.

First: 6mer-2-39 (RWRYRK)
Second: 6mer-2-40 (RRYRKK)
The Binding affinity of the first is lower: 137 Ru for the first, 153 Ru for the second.

First: 6mer-2-41 (KQLCKR)
Second: 6mer-2-42 (KLLSKR)
The Binding affinity of the first is higher: 142 Ru for the first, 126 Ru for the second.

First: 6mer-2-43 (RVITKR)
Second: 6mer-2-44 (KSVRRK)
The Binding affinity of the first is higher: 146 Ru for the first, 145 Ru for the second.

Going from 6mer-2-45 (RSLTKK) to 6mer-2-46 (KLYLKR), the Binding affinity rises from 121 Ru to 153 Ru.

Going from 6mer-2-47 (KLQSRR) to 6mer-2-48 (RRFRKK), the Binding affinity rises from 148 Ru to 153 Ru.

First: 6mer-2-49 (RLRCRK)
Second: 6mer-2-50 (RSQSKR)
The Binding affinity of the first is higher: 154 Ru for the first, 125 Ru for the second.

Compared with 6mer-2-51 (KQFLKK), 6mer-2-52 (KRQRKK) is lower in Binding affinity: 139 Ru for the first, 136 Ru for the second.

First: 6mer-2-53 (KSLSRR)
Second: 6mer-2-54 (KGRRRR)
The Binding affinity of the first is higher: 125 Ru for the first, 124 Ru for the second.

Going from 6mer-2-55 (RLFYKK) to 6mer-2-56 (RSQLRR), the Binding affinity rises from 125 Ru to 149 Ru.

Going from 6mer-2-57 (KQRCRR) to 6mer-2-58 (KRLQRK), the Binding affinity falls from 139 Ru to 122 Ru.

Compared with 6mer-2-59 (RVLSRK), 6mer-2-60 (RRLSKK) is higher in Binding affinity: 123 Ru for the first, 148 Ru for the second.

First: 6mer-2-61 (RGFQRK)
Second: 6mer-2-62 (RLVTKR)
The Binding affinity of the first is higher: 148 Ru for the first, 147 Ru for the second.

First: 6mer-2-63 (KSFRKR)
Second: 6mer-2-64 (KSVSKK)
The Binding affinity of the first is lower: 121 Ru for the first, 136 Ru for the second.

Compared with 6mer-2-65 (KGVCKR), 6mer-2-66 (RVIRRR) is lower in Binding affinity: 148 Ru for the first, 123 Ru for the second.

Compared with 6mer-2-67 (KLFCKK), 6mer-2-68 (KGRRRK) is higher in Binding affinity: 124 Ru for the first, 142 Ru for the second.

Going from 6mer-2-69 (KWFLRK) to 6mer-2-70 (KRLLRK), the Binding affinity falls from 139 Ru to 126 Ru.

Going from 6mer-2-71 (KQVYKR) to 6mer-2-72 (KRIQKK), the Binding affinity rises from 141 Ru to 144 Ru.

First: 6mer-2-73 (RLYTKR)
Second: 6mer-2-74 (RWIYKR)
The Binding affinity of the first is higher: 139 Ru for the first, 136 Ru for the second.

Compared with 6mer-2-75 (KLYTRK), 6mer-2-76 (RRQSRK) is higher in Binding affinity: 133 Ru for the first, 142 Ru for the second.

First: 6mer-2-77 (KQQTRR)
Second: 6mer-2-78 (KRYLKR)
The Binding affinity of the first is lower: 123 Ru for the first, 135 Ru for the second.
